Source: US9045527 (WILLIAM MARSH RICE UNIVERSITY, dated 2015)
Each block holds one binder with its values, some of them ahead of it. Where no end group is shown, it is not given here.

Experiments:
[1] = molecular target: T1, K3a,eRh2 metallopeptide (chain 1 pos 9 (heptad a) and pos 13 (heptad e): Glu side-chain carboxylates bridged by one dirhodium(II) centre, written E. N-terminal acetyl per paragraph 78. C-terminal form not stated.); test: thermal denaturation of an equimolar mixture, CD
T1 peptide: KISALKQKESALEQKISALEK

[2] = molecular target: T2, CAL PDZ domain (CALP), wild type (UniProt Q9HD26 278-362); test: fluorescence anisotropy displacement of a fluorescent reporter peptide
Procedure: (§1) Protein binding studies: Fluorescence anisotropy inhibition binding assays were performed using standard procedures. […] Following equilibration, fluorescence anisotropy values were determined using a Tecan Infinite M1000 plate reader (n=3). Inhibitor equilibrium dissociation (Ki) constants were estimated as described. DMSO and rhodium(II) acetate were used as negative controls for unlabeled and labeled peptides, respectively.

[3] = molecular target: T2, CAL PDZ domain (CALP), wild type; test: fluorescence anisotropy displacement of a fluorescent reporter peptide; apparent Ki, not significantly different from Rh2(OAc)4
Procedure: as §1

[4] = molecular target: CALP-H301A mutant (UniProt Q9HD26 278-362); test: fluorescence anisotropy displacement of a fluorescent reporter peptide
Procedure: as §1

binding result [1]: binds
Binder: Ac-EISALEKCISALEQEISALEK [E3gC peptide]

Ki [2]: 1.7 µM
Binder: Ac-E(dirhodium)WPTSII-OH (also: dirhodium metal complex at Glu side chain) [E^RhWPTSII metallopeptide]

Ki [3]: 6.3 µM
Binder: Ac-VQD(dirhodium)TRL-OH (also: dirhodium metal complex at Asp side-chain carboxylate) [VQD^RhTRL metallopeptide]

Ki [2]: 0.56 µM | Ki [4]: 9.2 µM
Binder: Ac-E(dirhodium)VQSTRL-OH (also: dirhodium metal complex at Glu side-chain carboxylate) [E^RhVQSTRL metallopeptide]
